Source: the nanobody polyreactivity screen of Harvey et al. (2022)

Assay: yeast display, Sf9 membrane polyspecificity reagent, FACS + sequencing; frameworks hold sequencing errors
How it was run: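 Nanobodies from a synthetic yeast display library (Saccharomyces cerevisiae BJ5465), induced 36–48 hours with galactose, were stained 1 hour at 4 °C with 10% biotinylated, detergent-solubilized Sf9 membrane reagent, enriched on streptavidin microbeads, then FACS-sorted. Anti-HA (expression) and streptavidin (reagent binding) fluorescence set low and high (top ~1%) gates. Polyreactivity labels come from the gate of origin. Genes were colony-PCR amplified, MiSeq 2 × 250 sequenced and filtered by CDR length.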

Sequence | polyreactivity (PSR sort gate)
QVQLVESGGGLVQAGGSLRLSCAASGRIFLDYAMGWYRQAPGKERELVAAIRYSGVGTYYADSVKGRFTISRDNAKNTVYLQMNSLKPEDTAVYYCNAVTKVGYLRRRDYWGQGTQVTVSS | high polyreactivity
QVQLVESGGGLVQAGGSLRLSCAASGRIFGSYVMGWYRQAPGKERELVAAISFSGDTTYYADSVKGRFTISRDNAKNTVYLQMNSLKPEDTAVYYCAAEFPQGYYAFKYDYWGQGTQVTVSS | high polyreactivity
HVQLVESGGGLVQAGGSLRLSCAASGITFPIYAMGWYRQAPGKEREFVAAINQRGGSTYYADSVKGRFTISRDNAKNTVYLQMNSLKPEDTAVDYCAAENGFNSLSRSGLHYWGQGTQVTVSS | low polyreactivity
QVQLVESGGGLVQAGGSLSLSCAASGSTFAYYAMGWYREAPGQERELVAGITWTGGSTYYADSVKGRFTISRDNAKNSVYLQMNSLKPEDTAVYYCAADRYFYEGDYWGQVTQVTVSS | low polyreactivity
QDQLVDSGGGLVQAGGSLRLLCAPSGRTFGVYAMGRYIQAPGKERELVAAISRDGGSTYYADSVKGRFTISRDNAKNTVYLQMNSLIPEDTAVYYCNTDWRYRYGYWGQGTQVTVSS | high polyreactivity
QVQLVESGGGLVQAGGSLRLSCAASGRTFGYNAMGWYRQAPGKERELVAAISSSGGSTYYADSVKGRFTISRDNAKNTVYLQMNSLKPEDTAVYYCATQGYSWAHGSDYWGQGTQVTVSS | low polyreactivity
QVQLQESGGGLVQAGGSLRLSCAASGYISHADEMGWYRQAPGKVHELVASISNGGSTNYADSVKGRFTISRDNAKNTVYLQMNSLKSEDTAVYYCAAWTGQVDIHYYWGQGTQVTVSS | low polyreactivity
QVQLVESGGGLVQAGGSLRLSCAASGRIFGTNAMGWYRQAPGKEREMVATITRGGGNTYYADSVKGRFTISRDNAKNTVYLQMNSLKPEDTAVYYCAAKFHRFAWFSHYDYWGQGTQVTVSS | low polyreactivity
QVQLVESGGGLVQAGGSLRLSCAASGRTFPVNAMGWYRQAPGKERELVASITYSGGSTYYADSVKGRFTISRDNAKNTVYLQMNSLKPEDTAVYYCAADWYRSPYDYWGQGTQVTVSS | low polyreactivity
QVQLVESGGGLVQAGGSLRLSCAASGFTFGSYAMGWYRPAPGKERELVAGISRGGSTNYADSVKGRFTISRDNAKNTVYLQMNSLKPEDTAVYYCAAYVIGPDQFIYDYWGQGTQVTVSS | low polyreactivity
QVQLVESGGGLVQAGGSLRLSCAASGRTFSWYVMGWSRQAPGKERALVAAISWNGGRTYYADSVKGRFTISRDNAKNTVYLQMNRLKPEDTAVYYCATGPDPKYDYWGQGTQVTVSS | high polyreactivity
QVQLVESGGGLVQAGGSLRLSCAASGFTFYGYAMVWYRQAPGKERELLAAITFRGDRTYYADSVKGRFTISRDIAKNTVYLQMNSLKPEDTAVYYCAAERPSGWYSYLSLYIVRRGYWGQGTQVTVSS | low polyreactivity
QVQLVESGGGLVQAGGSLRLSCAASGSTFYYNAMGWYRQAPGKEREFVAAINWRGGSTYYADSVKGRFTISRDNAKNTVYLQMNSLTPEDTAVYYCAAEEPSTYYYVRSGYDYHFWEMYSWGQGTQVTVSS | low polyreactivity
QVQLVESGGGLVQAGGSLRLSCAASGRIFKTNAMGWYRQAPGKERELVAGITSGGGTNYADSVKGRFTISRDNAKNTVYLQMNSLKPEDTAVYYCAKDRNFRHIKYSWGGYPYTMDYWGQGTQVTVSS | low polyreactivity
QDQLVESGGGLVQAGGILSLSCAASGSTFSYYAMGWYRQAPGTETELVAAISSRGGSTYYADSVKGRFTISRDNAKNPVYLQMNSLNPEDTAVDYCNADHKFRSSVSGDHDYWGQGTQVTVSS | high polyreactivity
QDQLEESGGGLVQAGGSLRLSCAASGFTFHINSMGWDREAPGKEREMVAAITYSGGSTYYADSVKGRFTISRDPAKNTVYLQMNCLKPEHTAVDYCATTWYFVASWFVAIYVYWGQGTQVTVSS | low polyreactivity

Sequence | polyreactivity (PSR sort gate)
QVQLVESGGGLVQAGGSLRLSSAASGITFPRYAMGWYRQAPGKERELVAAITRRGGSTYYADSVKGRFTISRDNAKNTVYLQMNSLKPEDTAVYYCNTDMRYSYYLPGYDYWGQGTQVTVSS | high polyreactivity
QVQLVESGGGLVQAGGSLRLSCAASGFTFRYYAMGWYRQAPGKERELVAAISSRGGTTYYADSVKGRFTISRDNAKNTVYLQMNSLKPEDTAVYYCAAVRPPSYYYWGQGTQVTVSS | high polyreactivity
QVQLVESGGGLVQAGGSLRLSCAASGSIFRAYAMGWYRQAPGKERELVATIRKSGGSTYYADSVKGRFTISRDNAKNTVYLQMNSLKPEDTAVYYCAARTIRYVNFYYWGQGTQVTVSS | high polyreactivity
QVQLVESGGGLVQAGGSLRLSCAASGNTFTYYALGWYRQAPGTEREVVASISSGGSTNYADSVKGRFTISRDNAKNTVYLQMNRLKPEDTAVYYCARGWSFSTRRFQHTRYYYWGQGTQVTVSS | high polyreactivity
QVQLVESGGGLVQAGGSLRLSCAASGSIIRTYAMGWYRQAPGKERELVAAISGSGSRTYYADSVKGRFTISRDNAKNTVYLQMNSLKPEDSAVYYCAADPGTPRYQFLWYGYWGQGTQVTVSS | low polyreactivity
QVQLVESGGGLVQAGGSLRLSCAASGRNFSFNTMVWYIQAPRKERELVAAITSSSARTYYADSVKGRFTISRDNAKNTVYLQMNSLKPEDTAVDYCDTRDWVGSVRMGYWGQGTQVTVSS | high polyreactivity
QVQLVESGGGLVQAGGSHRLSCAASGSTFVSNAMGGYRQAPGKERELVAGITFSGGSTYYADSVKGRFTISRDNAKNAVYLQMNSVKPEDTAVYYCAKRTYPSFYYWGQGTKVTVSS | low polyreactivity
QVQLVESGGGLVQAGGSVRLSCAASGSIFGWYAMGWYRQGPGKEREWVATITDRGGRTYYADSVKGRFTISRDNAKNTVYLQMNSLKPEDTAVYYCAADDCPFEAEYDSWGQGTQVTVSS | low polyreactivity
QFQLVESGGGLVQAGGSLRISCDASGRTFWYYTMGWYRKAPGKERELVASITYRGGSTYYADSVKGRFTISRDNAKNTVYLQMNSLKPEDTAVYYCNKPYFTASGDRFGYWGQGTQVTVSS | low polyreactivity
QVQLVESGGGLVQAGGSLRLSCAASGSTIFPYAMGWYRQAPGKERELVAAITSGGNTNYADSVKGRFTISRDNAKNTVYLQMNSLKPEDTAVYYCAADYFWHYRKYDYWGQGTQVTVSS | low polyreactivity
QVQLVESGGGLVQAGGSLRLSCAASGSTFYLYAMGWYRQAPGKERELVAAISYSDGSTYYADSVKGRFTISRDNAKNTVYLQMNSMKPEDTAVYYCAAQHYVRSSIPGFIYYYWGQGTQVNVSS | high polyreactivity
QVQLVESGGGLVQAGGSLRLSGAASGRTLYGYAMGWYRQAPGKERELVARITGRDGSTDYADSVKGRFTISRDNAKNTVYFPMNSLKPEETAVYSCNARVRFHWYRSDYWGQGTEVTVSS | high polyreactivity
QVQLVESGGGLVQAGGRLRLSCAASGRTFGWYAMGWYRQAPGKERELVASITQRGGRTYYADSVKGRFTISRDNAKNTVYLQMNSLKPEDTAVYYCAAKTSPGMYYWGQGTQVTVSS | high polyreactivity
QDQLVESGGGLVQAGGSLRLSCAASGRLFSQYAMGWYRQAPGKERELVAAISWRTGSTYYADSVKGRFTISRDNAKNTVYLQMNSLKPEDTAVYYCSAANAGRYPYNYSGQGTQVTVSS | high polyreactivity
QVQIVESGGVIVQAGGSLRLSCAASGRIISYYTMGWYRQAPGKERELVAAISVSSGRTYYADSVKGRFTISRDNAKNTVYLQMNSLKPEDTAVYYCDAKYLARSAYDYWGQGTQVTVSS | high polyreactivity
